Reference: patent publication US7871610B2, “Antibodies to Tie1 ectodomain” (Dyax Corp., priority 2003, dated 2011)

Experiments:
Tie1 = Tie1 (Homo sapiens, UniProt P35590); experiment: Immunoprecipitation from HUVEC lysates; assay type: binding; parameters: endogenous in cells; host or cells: HUVEC; conditions: 5 μg/ml antibody
Protocol: The conclusion from this study was that platelets represent a large pool of Tie-1 immunoreactivity which could present a problem for development of Tie1 as a therapeutic target. […] Both, activated and inactivated platelets were tested. Anti-Tie-1 antibodies B2, D11, E3, the goat polyclonal AF619 (R&D) and negative control antibodies anti-FITC and anti-Streptavidin were used. HUVECS were retrieved from culture dishes by trypsinization and platelets were prepared with the platelet GelSep kit (Biocytex, Marseille, France) kit according to the guidelines of the manufacturer. Per immunoprecipitation experiment 3-5e10^6 and 3e10^8 cells platelets were used for each antibody tested. Platelets and cells were washed with PBS and spun down at 1400 rpm for 4 minutes and supernatant was removed. Then cells were lysed in 1 ml lysis buffer containing 50 mM Tris HCL pH 7.5, 150 mM NaCl, 0.5% Deoxycholic acid (DOC) and 0.5% NP-40 for 5 minutes. The lysed cells were spin down for 10 minutes at 14.000 rpm and 5 μg/ml antibody was added to the supernatant and incubated at 4° C. on a rotator. 100 μl/sample protein A beads (Uppsala, Sweden) were washed 3 times with lysis buffer (centrifugation speed: 1.5 seconds, 2000 rpm) then cell lysates incubated with antibody were added for 30 minutes 4° C. […] In Western blotting Tie-1 was detected with the polyclonal goat anti-Tie-1 antibody.

HUVEC = experiment: Tube formation assay with HUVEC in collagen gel; assay type: cell-based, human; conditions: collagen I gel; E3 active even at 10 ng/ml (tested 1 ng/ml to 10 μg/ml); E3b-IgG1 tested 1 pg/ml to 10 ng/ml
Protocol: Human Umbilical vein endothelial cells (HUVEC) were obtained by treating fresh human umbilical cord veins with Trypsin-EDTA (1×) (Gibco/Invitrogen) for 20-25 minutes at 37° C. The cells were cultured in a T-25 flask coated with attachment factor (AF), (Cascade Biologics) in RPMI 1640 medium supplemented with 10% FCS, 0.4% BBE, 1% 1-glutamin, 1% penicillin/streptomycin. Primary cultures were detached with warm Trypsin-EDTA and used when confluent at the second or third passage. The cells were maintained in a proliferative state by culturing them in a split ratio 1:2 at an approximate density of the monolayer of about 60-80%. […]
After 2 passages HUVECs were seeded in their culture medium (40.10^3/50 μl/well of a 96-well plate) on a collagen gel (50 μl of collagen I 1.5 mg/ml) prepared by mixing 7.5 volumes of 2 mg/ml collagen (Collagen R; Serva, Heidelberg, Germany), 1 volume of 10×MEM, 1.5 volume of NaHCO3 (15.6 mg/ml) and ˜1 volume of NaOH to adjust the pH to 7.4. […] The total length of the tube network on the culture surface was quantified at ×40 magnification by the METAVUE™ Software (Universal Imaging Corporation). Results from triplicate wells were expressed as mean vessel area per field ±SEM (relative units). […]
Germlined E3 and its parental antibody were evaluated in the tube formation assay in a collagen type-I matrix. […]

Sequence of Tie1 (P35590 22-1138): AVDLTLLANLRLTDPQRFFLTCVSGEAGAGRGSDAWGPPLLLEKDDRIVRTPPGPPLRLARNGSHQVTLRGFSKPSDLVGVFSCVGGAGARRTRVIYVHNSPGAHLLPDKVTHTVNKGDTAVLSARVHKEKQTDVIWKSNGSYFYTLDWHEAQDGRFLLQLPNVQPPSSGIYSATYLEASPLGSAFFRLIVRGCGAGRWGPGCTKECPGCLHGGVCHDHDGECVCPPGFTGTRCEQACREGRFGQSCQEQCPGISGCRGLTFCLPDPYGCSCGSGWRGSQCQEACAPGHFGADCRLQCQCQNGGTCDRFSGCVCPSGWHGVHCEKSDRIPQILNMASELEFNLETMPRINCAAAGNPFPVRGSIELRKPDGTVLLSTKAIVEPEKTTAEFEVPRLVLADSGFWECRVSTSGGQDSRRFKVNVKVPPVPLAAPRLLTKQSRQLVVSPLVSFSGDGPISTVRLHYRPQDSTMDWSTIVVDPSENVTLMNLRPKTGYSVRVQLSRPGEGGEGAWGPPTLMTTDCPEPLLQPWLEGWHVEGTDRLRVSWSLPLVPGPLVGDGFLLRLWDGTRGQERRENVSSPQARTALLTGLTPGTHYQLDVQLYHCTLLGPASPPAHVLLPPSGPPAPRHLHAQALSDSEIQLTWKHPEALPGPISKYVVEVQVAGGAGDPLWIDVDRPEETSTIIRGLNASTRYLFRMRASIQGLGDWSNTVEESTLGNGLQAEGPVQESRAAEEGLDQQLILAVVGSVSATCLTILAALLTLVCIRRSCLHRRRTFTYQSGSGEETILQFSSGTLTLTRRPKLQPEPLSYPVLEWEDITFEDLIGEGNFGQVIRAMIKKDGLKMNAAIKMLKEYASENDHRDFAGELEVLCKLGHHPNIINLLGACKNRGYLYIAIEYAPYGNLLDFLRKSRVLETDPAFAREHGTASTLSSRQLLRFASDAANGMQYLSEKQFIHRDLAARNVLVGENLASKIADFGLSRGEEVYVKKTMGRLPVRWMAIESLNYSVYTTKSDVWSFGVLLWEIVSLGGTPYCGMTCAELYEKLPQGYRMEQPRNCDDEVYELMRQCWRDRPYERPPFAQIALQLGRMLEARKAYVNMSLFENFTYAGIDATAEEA

B1: E3: human anti-Tie1 antibody from Fab phage library; HC SEQ ID NO:114, LC SEQ ID NO:116 (antibody, V domains shown)
VH: EVQLLESGGGLVQPGGSLRLSCAASGFTFSMYGMVWVRQAPGKGLEWVSVISPSGGNTGYADSVKGRFTISRDNSKNTLYLQVNSLRAEDTAVYYCARAPRGYSYGYYYWGQGTLVTVSSASTKGPSVFPLAPSSKSTSGG
VL: DIQMTQSPLSLSASVGDRVTITCRASQGIGHYLAWYQQKPGKVPKLLIYTASTLQSGVPSRFSGSGSGTDFTLTINSLQPEDVATYYCQQFNSYPHTFGQGTRLDIK
modifications: Synthetically generated peptide
Question: What does the source list for B1?
Answer: immunoprecipitation of Tie-1 from HUVEC (Tie1): able to immune precipitate Tie-1 in HUVEC; tube formation by HUVECs (HUVEC): potent inhibitor of tube formation
